# Measurements from patent EP4806514A2 (Lepu Biopharma Co., Ltd., dated 2025).
# T1: human CDH9-his (Acro bio, Cat. No. CA9-H52H6) (human, UniProt Q9ULB4 54-615)
# T1 construct: Bought; also called human CDH9 protein
# T1 sequence (looked up): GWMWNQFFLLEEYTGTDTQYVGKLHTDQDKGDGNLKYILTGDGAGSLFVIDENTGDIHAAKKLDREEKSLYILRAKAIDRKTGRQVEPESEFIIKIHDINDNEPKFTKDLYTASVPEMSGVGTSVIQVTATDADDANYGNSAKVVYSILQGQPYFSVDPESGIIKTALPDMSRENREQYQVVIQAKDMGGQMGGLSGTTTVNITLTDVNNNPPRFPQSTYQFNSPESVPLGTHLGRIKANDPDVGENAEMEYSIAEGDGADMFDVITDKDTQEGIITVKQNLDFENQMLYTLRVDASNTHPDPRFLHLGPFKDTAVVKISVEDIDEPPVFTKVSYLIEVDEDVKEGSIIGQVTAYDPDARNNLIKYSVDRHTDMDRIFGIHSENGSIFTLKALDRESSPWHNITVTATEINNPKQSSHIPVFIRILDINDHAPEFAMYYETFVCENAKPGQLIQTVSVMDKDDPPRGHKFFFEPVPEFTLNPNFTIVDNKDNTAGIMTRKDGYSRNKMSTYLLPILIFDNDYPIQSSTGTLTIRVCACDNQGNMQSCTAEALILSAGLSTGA
# T2: human CDH10-his protein (Acro bio, Cat. No. CA0-H52H5) (human, UniProt Q9Y6N8 55-613)
# T2 construct: Bought; also called human CDH10 protein
# T2 sequence (looked up): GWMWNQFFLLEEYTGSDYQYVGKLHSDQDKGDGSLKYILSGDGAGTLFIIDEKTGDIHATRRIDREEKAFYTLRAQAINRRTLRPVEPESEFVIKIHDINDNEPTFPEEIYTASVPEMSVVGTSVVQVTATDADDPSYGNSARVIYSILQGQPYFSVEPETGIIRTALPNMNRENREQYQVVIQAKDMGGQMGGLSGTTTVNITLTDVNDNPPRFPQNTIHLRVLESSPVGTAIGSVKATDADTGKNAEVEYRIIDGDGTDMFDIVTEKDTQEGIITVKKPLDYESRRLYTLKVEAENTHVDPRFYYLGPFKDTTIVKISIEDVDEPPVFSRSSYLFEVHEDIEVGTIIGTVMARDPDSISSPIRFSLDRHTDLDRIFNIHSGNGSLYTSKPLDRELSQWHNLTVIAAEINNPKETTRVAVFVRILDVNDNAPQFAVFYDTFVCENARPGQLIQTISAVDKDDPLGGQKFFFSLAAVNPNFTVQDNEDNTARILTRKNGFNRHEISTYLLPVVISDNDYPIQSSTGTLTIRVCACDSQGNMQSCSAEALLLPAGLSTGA
# T3: human CDH16 protein (hCDH16-his, Novoprotein, Cat. No. CJ16) (human, UniProt O75309 19-786)
# T3 construct: Bought; also called human CDH16-his
# T3 sequence (looked up): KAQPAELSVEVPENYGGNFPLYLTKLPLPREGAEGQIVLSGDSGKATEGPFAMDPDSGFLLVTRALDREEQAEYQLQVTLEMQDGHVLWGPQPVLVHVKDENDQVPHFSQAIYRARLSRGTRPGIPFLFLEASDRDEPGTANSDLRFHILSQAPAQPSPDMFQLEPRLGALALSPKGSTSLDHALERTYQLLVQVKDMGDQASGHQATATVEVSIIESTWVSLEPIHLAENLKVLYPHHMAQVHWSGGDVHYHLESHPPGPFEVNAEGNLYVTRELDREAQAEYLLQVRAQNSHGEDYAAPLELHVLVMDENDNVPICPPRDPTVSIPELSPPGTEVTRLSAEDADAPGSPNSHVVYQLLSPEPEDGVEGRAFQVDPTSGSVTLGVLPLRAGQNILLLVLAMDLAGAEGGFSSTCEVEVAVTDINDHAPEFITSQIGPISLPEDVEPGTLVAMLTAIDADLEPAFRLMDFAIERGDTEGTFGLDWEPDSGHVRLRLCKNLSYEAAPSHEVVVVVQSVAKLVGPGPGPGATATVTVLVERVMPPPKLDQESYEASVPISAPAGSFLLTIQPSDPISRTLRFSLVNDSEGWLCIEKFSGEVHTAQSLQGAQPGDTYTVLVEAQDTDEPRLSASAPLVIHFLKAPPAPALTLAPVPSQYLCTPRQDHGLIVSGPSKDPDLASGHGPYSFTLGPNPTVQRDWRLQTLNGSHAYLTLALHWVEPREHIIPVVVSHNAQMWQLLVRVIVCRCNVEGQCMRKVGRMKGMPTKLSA
# T4: rat CDH17-his (Sino bio, Cat. No. 80283-R08H) (rat, UniProt P55281 22-786)
# T4 construct: Bought; also called rat CDH17 protein
# T4 sequence (looked up): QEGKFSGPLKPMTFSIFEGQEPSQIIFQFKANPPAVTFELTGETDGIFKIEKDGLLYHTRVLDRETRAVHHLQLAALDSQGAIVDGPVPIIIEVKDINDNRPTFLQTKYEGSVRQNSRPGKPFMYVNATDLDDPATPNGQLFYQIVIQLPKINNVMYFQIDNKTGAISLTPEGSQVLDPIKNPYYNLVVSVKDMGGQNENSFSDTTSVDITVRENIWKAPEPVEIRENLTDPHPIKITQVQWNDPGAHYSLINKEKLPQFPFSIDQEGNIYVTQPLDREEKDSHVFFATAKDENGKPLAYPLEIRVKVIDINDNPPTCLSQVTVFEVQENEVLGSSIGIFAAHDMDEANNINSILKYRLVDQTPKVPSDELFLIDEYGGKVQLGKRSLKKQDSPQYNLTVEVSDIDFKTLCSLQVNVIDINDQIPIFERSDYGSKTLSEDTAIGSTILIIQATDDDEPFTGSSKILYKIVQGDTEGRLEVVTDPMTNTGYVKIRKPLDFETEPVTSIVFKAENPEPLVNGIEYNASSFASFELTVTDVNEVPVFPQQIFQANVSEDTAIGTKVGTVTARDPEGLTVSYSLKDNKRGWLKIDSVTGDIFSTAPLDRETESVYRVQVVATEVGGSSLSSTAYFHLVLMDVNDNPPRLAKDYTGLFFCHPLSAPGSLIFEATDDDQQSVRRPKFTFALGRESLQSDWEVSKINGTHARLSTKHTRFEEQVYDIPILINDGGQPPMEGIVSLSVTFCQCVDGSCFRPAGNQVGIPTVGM
# B1: 29H8D3-z12 (antibody, V domains shown)
# VH: QVQLVQSGAEVKKPGASVKVSCKASGYTFTDHTIHWMRQRPGQGLEWIGYIYPRDGYTKYNEKFKDRATLTADTSTSTAYMELRSLRSDDTAVYYCARFYYGYWYFDVWGQGTTVTVSS
# VL: DIVMTQSPLSLPVTPGEPASISCRSSKSLLRSNGNTYLYWFLQKPGQSPQVLIYRMSNLASGVPDRFSGSGSGTDFTLKISRVEAEDVGVYYCMQHLEYPFTFGQGTKLEIK
# notes: Humanized, human IgG1 constant region; also called 29H8D3-z12 mAb
# Tests used:
# Assay in all cases: ELISA, antigen coated at 1 ug/mL
# [1] = biological target: T1, human CDH9-his (Acro bio, Cat. No. …)
# [2] = biological target: T2, human CDH10-his protein (Acro bio, Cat. …)
# [3] = biological target: T3, human CDH16 protein (hCDH16-his, …)
# [4] = biological target: T4, rat CDH17-his (Sino bio, Cat. No. …)
binder,measurement,setting,value
B1,binding result,[1],no binding (tested: titrated from 50 nM)
same,binding result,[2],no binding (tested: titrated from 50 nM)
same,binding result,[3],no binding (tested: titrated from 50 nM)
same,binding result,[4],no binding (tested: titrated from 50 nM)
